# PMC5818262 (ACS chemical biology, 2012)
# Where two headings read alike, the source gives them in different places.
# B1: CitA (Streptomyces coelicolor A3(2)) (protein)
# chain: MSDNSVVLRYGDGEYTYPVIDSTVGDKGFDIGKLRAQTGLVTLDSGYGNTAAYKSAITYLDGEAGILRYRGYPIEQLAERSSFVEVAYLLINGELPTVDELSAFKGEITQHTLLHEDVKNFYKGFPRDAHPMAMLSSVVSALSTFYQDSHNPFDERQRNLSTIRLLAKLPTIAAYAYKKSIGHPFVYPANNLGYVENFLRMTFSVPAQEYELDPTVVAALDKLLILHADHEQNCSTSTVRLVGSSQANMFASISAGINALWGPLHGGANQSVLEMLEGIRDAGGDVDSFIRKVKNKEDGVRLMGFGHRVYKNFDPRAKIIKAAAHDVLSALGKSDELLDIALKLEEHALSDDYFVSRSLYPNVDFYTGLIYRAMGFPTEMFTVLFALGRLPGWIAQWHEMIKEPGSRIGRPRQIYTGVVERDFVPVEER
# B2: AckA (E. coli) (Escherichia coli K-12) (protein)
# chain: MSSKLVLVLNCGSSSLKFAIIDAVNGEEYLSGLAECFHLPEARIKWKMDGNKQEAALGAGAAHSEALNFIVNTILAQKPELSAQLTAIGHRIVHGGEKYTSSVVIDESVIQGIKDAASFAPLHNPAHLIGIEEALKSFPQLKDKNVAVFDTAFHQTMPEESYLYALPYNLYKEHGIRRYGAHGTSHFYVTQEAAKMLNKPVEELNIITCHLGNGGSVSAIRNGKCVDTSMGLTPLEGLVMGTRSGDIDPAIIFHLHDTLGMSVDAINKLLTKESGLLGLTEVTSDCRYVEDNYATKEDAKRAMDVYCHRLAKYIGAYTALMDGRLDAVVFTGGIGENAAMVRELSLGKLGVLGFEVDHERNLAARFGKSGFINKEGTRPAVVIPTNEELVIAQDASRLTA
# Assays:
# Cit2 = assay: steady-state initial rates, Hill equation fit; format: biochemical, Streptantibioticus cattleyicolor; details: read-out: K0.5
# Cit1 = assay: steady-state initial rates, Hill equation fit; format: biochemical, Streptantibioticus cattleyicolor; details: read-out: K0.5
# ACS (S. cattleya) = ACS (S. cattleya) (Streptantibioticus cattleyicolor, UniProt F8K1P4); format: biochemical
# AckA (S. cattleya) = AckA (S. cattleya) (Streptantibioticus cattleyicolor, UniProt G8X369); format: biochemical
# GltA = GltA (Escherichia coli, UniProt P0ABH7); assay: steady-state initial rates, Hill equation fit; format: biochemical; details: read-out: K0.5
# [1] = test system: CC(=O)SCCNC(=O)CCNC(=O)[C@H](O)C(C)(C)COP(=O)(O)OP(=O)(O)OC[C@H]1O[C@@H](n2cnc3c(N)ncnc32)[C@H](O)[C@@H]1OP(=O)(O)O; assay: steady-state initial rates, Hill equation fit; format: biochemical, Escherichia coli
# [2] = substrate: CC(=O)SCCNC(=O)CCNC(=O)[C@H](O)C(C)(C)COP(=O)(O)OP(=O)(O)OC[C@H]1O[C@@H](n2cnc3c(N)ncnc32)[C@H](O)[C@@H]1OP(=O)(O)O; assay: steady-state initial rates, Hill equation fit; format: biochemical, Streptomyces coelicolor
# [3] = substrate: CC(C)(COP(=O)(O)OP(=O)(O)OC[C@H]1O[C@@H](n2cnc3c(N)ncnc32)[C@H](O)[C@@H]1OP(=O)(O)O)[C@@H](O)C(=O)NCCC(=O)NCCSC(=O)CF; assay: steady-state initial rates, Hill equation fit; format: biochemical, Streptomyces coelicolor
# purified protein = substrate: CC(=O)O; assay: purified protein
# GltA, sequence (P0ABH7 whole entry): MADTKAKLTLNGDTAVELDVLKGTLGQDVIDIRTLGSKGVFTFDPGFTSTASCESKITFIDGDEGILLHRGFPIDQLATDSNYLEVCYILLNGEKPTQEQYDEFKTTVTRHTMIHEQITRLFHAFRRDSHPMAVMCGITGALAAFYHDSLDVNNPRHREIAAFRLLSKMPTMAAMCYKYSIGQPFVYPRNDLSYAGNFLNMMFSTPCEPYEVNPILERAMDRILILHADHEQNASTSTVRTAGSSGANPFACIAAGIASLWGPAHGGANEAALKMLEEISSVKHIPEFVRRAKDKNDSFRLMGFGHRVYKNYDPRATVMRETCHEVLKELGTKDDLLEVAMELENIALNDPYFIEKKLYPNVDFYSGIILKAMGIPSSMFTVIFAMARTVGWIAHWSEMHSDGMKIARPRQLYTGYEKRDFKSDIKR
molecule,measurement,setting,value
O=C(O)CC(=O)C(=O)O [Oxaloacetate],Km,Cit2,3.8 ± 0.4 µM
same,Km,Cit1,130 ± 20 µM
"O=C(O)CF [compound 6, Fluoroacetate]",Km,ACS (S. cattleya),52 mM
same,Km,AckA (S. cattleya),5.7 mM
"CC(C)(COP(=O)(O)OP(=O)(O)OC[C@H]1O[C@@H](n2cnc3c(N)ncnc32)[C@H](O)[C@@H]1OP(=O)(O)O)[C@@H](O)C(=O)NCCC(=O)NCCSC(=O)CF [compound 9, Fluoroacetyl-CoA]",Km,Cit2,0.98 ± 0.05 µM
same,Km,Cit1,16 ± 4 µM
same,Km,GltA,5.1 ± 0.3 µM
"CC(=O)SCCNC(=O)CCNC(=O)[C@H](O)C(C)(C)COP(=O)(O)OP(=O)(O)OC[C@H]1O[C@@H](n2cnc3c(N)ncnc32)[C@H](O)[C@@H]1OP(=O)(O)O [compound 10, Acetyl-CoA]",Km,Cit2,4.9 ± 0.4 µM
same,Km,Cit1,15 ± 2 µM
GltA (Escherichia coli K-12),K0.5,[1],170 ± 60 µM
same,kcat,[1],80 ± 10 s⁻¹
same,kcat/Km,[1],500000 ± 200000 M⁻¹ s⁻¹
B1,K0.5,[2],47 ± 2 µM
same,kcat,[2],17.9 ± 0.4 s⁻¹
same,kcat/Km,[2],380000 ± 10000 M⁻¹ s⁻¹
same,K0.5,[3],15.4 ± 0.8 µM
same,kcat/Km,[3],126000 ± 8000 M⁻¹ s⁻¹
B2,Km,purified protein,(2.7 ± 0.2) × 10^4 μM
same,kcat,purified protein,1340 s⁻¹
same,kcat/Km,purified protein,50000 M⁻¹ s⁻¹
